Results taken from patent publication US20200262927A1 (OXFORD BIOTHERAPEUTICS, published 2020).

Columns and labels:
[1] = target: human CRTAM on in vitro activated human T cells (human) (UniProt O95727); test: flow cytometry on in vitro activated human T cells, MFI against antibody concentration
[2] = target: T1, human CRTAM on in vitro activated human T cells (human, UniProt O95727 18-393); test: flow cytometry on in vitro activated human T cells, goat anti-rat IgG-RPE detection, MFI against antibody concentration
T1 sequence: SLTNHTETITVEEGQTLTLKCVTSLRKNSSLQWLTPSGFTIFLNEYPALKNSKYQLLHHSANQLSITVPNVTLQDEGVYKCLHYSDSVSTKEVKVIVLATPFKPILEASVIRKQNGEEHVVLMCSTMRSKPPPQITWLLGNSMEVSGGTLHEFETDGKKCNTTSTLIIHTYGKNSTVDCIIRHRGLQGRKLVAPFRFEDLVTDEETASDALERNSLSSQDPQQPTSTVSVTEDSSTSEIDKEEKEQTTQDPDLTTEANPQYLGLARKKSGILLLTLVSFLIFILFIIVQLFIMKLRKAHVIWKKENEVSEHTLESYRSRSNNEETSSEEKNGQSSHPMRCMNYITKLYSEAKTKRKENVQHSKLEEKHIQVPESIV
Procedure: Following this the cells were cultured with anti-CD3/anti-CD28 activation beads (Cat #11132D, Thermo Fisher, Waltham, Mass.) for 24 hours before FACS analysis (data not shown).
Fluorescence-activated cell sorting (FACS) analysis was performed in 96-well plate format according to standard protocols. Activated T cells were prepared as above. All subsequent steps of the staining protocol were carried out on ice with ice-cold reagents except for the centrifugation steps which was done at RT. Three-fold serial dilutions of the antibodies, were prepared in FACS buffer to give a 12-point titration curve with final concentrations ranging from 133 nM to 1 pM. The corresponding hybridoma supernatants, isotype controls, and positive control antibodies were diluted in ice cold FACS buffer to be tested at a single point with a final concentration of 30 nM. The antibody dilutions were each dispensed (100 μL/well) into one well for each cell line. […] The final cell pellets were re-suspended in […]+50 μl of 4% paraformaldehyde and fixed until ready to be acquired in a Flow cytometer. […] Geometric mean fluorescence intensity (GMFI or Geo Mean) of each sample was determined using a Guava Easycyte Plus high-throughput flow cytometer (96 well plates) and raw data were analyzed using the Guava Cytosoft Pro Software Module, version 2.2.2 (Millipore, Billerica Mass.). […]

EC50 (read off the curve) [1] [µg/mL] | EC50 (read off the curve) [2] [µg/mL] | Molecule
2 | – | commercially available anti-CRTAM antibody CR24.1 (BioLegend)
– | ~0.02 | 5A11 parental rat monoclonal anti-CRTAM antibody (antibody, V domains shown, Rat monoclonal from a hybridoma, detected with goat anti-rat IgG; also called antibody 5A11; BUH-5A11-F2) VH: AVQLVESGGGLVQPKESLKISCAASGFTFSDAAMYWVRQAPGKGLEWVARIRTKTNNYAAHYVESVKGRFTVSRDDSKSMVYLQMDNLKTDDTAMYYCTSVPQGTQDYWGQGVMVTVSS VL: SYELIQPPSASVTLGNTVSLTCVGDELSKRYVQWSQQKPDKTIVSVIYKDSERPSGISDRFSGSSSGTTATLTIHGTLAEDEADYYCLSTYSDDNLPVFGGGTKLTVL
